According to paper PMC10920922:

Columns and labels:
[1] = molecular target: TaSG-D1-GFP (wheat (Triticum aestivum))
[2] = molecular target: TaSG-D1^E286K-GFP (Indian dwarf wheat (Triticum sphaerococcum))

share of TaPIF4 associated with and protected by the kinase after 3 h heat stress: TaPIF4 protein still detectable on co-transformation in N. benthamiana leaves (23%) less that of the control (12%) [1]: 11%
share of TaPIF4 associated with and protected by the kinase after 3 h heat stress: TaPIF4 protein still detectable on co-transformation in N. benthamiana leaves (88%) less that of the control (12%) [2]: 76%
Substance: TaPIF4-Myc (natural protein)
